Experimental data reported in PMC10044410 (Cell, 2023).

Experiments:
[1] = molecular target: GroEL (wild type, recombinant, from pET22b-groL) (E. coli, UniProt P0A6F5 1-548); assay: SEC
[2] = molecular target: GroEL (untagged, from pET15b, for quantitative binding studies) (E. coli, UniProt P0A6F5 1-548); assay: other fluorescence titration
[3] = molecular target: GroEL_(R452A/E461A/S463A/V464A) (E. coli, UniProt P0A6F5 1-548, R452A | E461A | S463A | V464A); assay: SEC

B1: Citrate synthase (CS) from pig hearts, chemically unfolded (enzyme, UniProt P00889 28-464, looked up)
chain: ASSTNLKDILADLIPKEQARIKTFRQQHGNTVVGQITVDMMYGGMRGMKGLVYETSVLDPDEGIRFRGYSIPECQKMLPKAKGGEEPLPEGLFWLLVTGQIPTEEQVSWLSKEWAKRAALPSHVVTMLDNFPTNLHPMSQLSAAITALNSESNFARAYAEGIHRTKYWELIYEDCMDLIAKLPCVAAKIYRNLYREGSSIGAIDSKLDWSHNFTNMLGYTDAQFTELMRLYLTIHSDHEGGNVSAHTSHLVGSALSDPYLSFAAAMNGLAGPLHGLANQEVLVWLTQLQKEVGKDVSDEKLRDYIWNTLNSGRVVPGYGHAVLRKTDPRYTCQREFALKHLPHDPMFKLVAQLYKIVPNVLLEQGKAKNPWPNVDAHSGVLLQYYGMTEMNYYTVLFGVSRALGVLAQLIWSRALGFPLERPKSMSTDGLIKLVDSK
- binding result [1]: binds

B2: GroES (for quantitative binding studies, His tag removed) (natural protein, E. coli)
chain: MNIRPLHDRVIVKRKEVETKSAGGIVLTGSAAAKSTRGEVLAVGNGRILENGEVKPLDVKVGDIVIFNDGYGVKSEKIDNEEVLIMSESDILAIVEA
- Ki [2]: 0.047 µM

B3: CnoX (wild type, recombinant, from pET22b-cnoX) (natural protein, E. coli)
chain: MSVENIVNINESNLQQVLEQSMTTPVLFYFWSERSQHCLQLTPILESLAAQYNGQFILAKLDCDAEQMIAAQFGLRAIPTVYLFQNGQPVDGFQGPQPEEAIRALLDKVLPREEELKAQQAMQLMQESNYTDALPLLKDAWQLSNQNGEIGLLLAETLIALNRSEDAEAVLKTIPLQDQDTRYQGLVAQIELLKQAADTPEIQQLQQQVAENPEDAALATQLALQLHQVGRNEEALELLFGHLRKDLTAADGQTRKTFQEILAALGTGDALASKYRRQLYALLY
- binding result [3]: binds
